Measured values as given in the RNAGym collection of RNA variant scans (doi:10.1093/nar/gkz1192).

B1: CPEB3 Ribozyme (parent)
chain: UAACAGGGGGCCACAGCAGAAGCGUUCACGUCGCAGCCCCUGUCAGAUUCUGGUGAAUCUGCGAAUUCUGCUGUAUAUCUC

Variants of: B1
Assay: self-cleavage, relative activity (ratio to wild type); higher = more cleavage; in vitro, sequencing
In short: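 Relative activity was defined as the cleaved/total read fraction for a variant divided by the same fraction for the unmutated ribozyme. CPEB3 self-cleaving ribozyme libraries were made by rounds of error-prone PCR, barcoded, and transcribed in vitro with T7 RNA polymerase for 5 hours at 37°C, and cleavage ran through transcription plus a 15 min DNase I step before EDTA. Illumina sequencing of template-switched reverse transcripts gave the reads, and DNA sequencing mapped the barcodes. Averages come from three batches, using variants with at least 5 reads.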

| Variant | self-cleavage |
| --- | --- |
| U41C U72A | 0.79 |
| U41C U72G | 0.92 |
| U41C U72C | 1.11 |
| U41A A77U | 0.31 |
| U41A A77C | 0.15 |
| U41A A77G | 0.31 |
| U41A U78G | 0.13 |
| U41A U78C | 0.26 |
| U41A U78A | 0.25 |
| U41A U76A | 0.16 |
| U41A U76G | 0.22 |
| U41A U76C | 0.27 |
| U41C C79U | 1.26 |
| U41C C79A | 1.21 |
| G42U U67C | 0.08 |
| U41A G61U | 0.24 |
| U41G U48C | 0.36 |
| G42U A47G | 0.18 |
| G42A G63U | 0.35 |
| U41C G53A | 1.13 |
| U41C G53C | 1.13 |
| G42A G70C | 0.13 |
| G42A G70A | 0.19 |
| U41C A47C | 0.46 |

| Variant | self-cleavage |
| --- | --- |
| U41C A47G | 1 |
| U41C A47U | 0.61 |
| U41C U74C | 1.23 |
| U41C U74A | 1.22 |
| U41C U74G | 1.21 |
| U41A U54A | 0.27 |
| U41A U54C | 0.29 |
| U41A U54G | 0.22 |
| U41C U48A | 0.6 |
| U41C U48G | 0.55 |
| U41C U48C | 0.71 |
| U41G C81U | 0.33 |
| U41G C44A | 0.13 |
| U41C U80G | 1.29 |
| U41C U80C | 1.04 |
| U41C U80A | 1.15 |
| G42U A75G | 0.19 |
| G42A G55U | 0.08 |
| G42A U58A | 0.21 |
| G42A U58C | 0.25 |
| U41A C71G | 0.1 |
| U41A C71U | 0.24 |
| U41A A56G | 0.24 |
| U41A A56U | 0.29 |

| Variant | self-cleavage |
| --- | --- |
| G42A C79A | 0.33 |
| G42A C79U | 0.36 |
| G42A U54A | 0.45 |
| G42A U54C | 0.57 |
| U41G A57C | 0.11 |
| U41G A57G | 0.23 |
| G42A U76G | 0.26 |
| G42A U76C | 0.41 |
| U41A G42A | 0.37 |
| U41A G42U | 0.27 |
| U41A G42C | 0.21 |
| G42C U49C | 0.1 |
| U41A C81A | 0.22 |
| U41A C81U | 0.25 |
| U41A C81G | 0.25 |
| U41A U43C | 0.27 |
| U41A U43A | 0.24 |
| U41A U43G | 0.4 |
| U41G U43A | 0.28 |
| U41G U43C | 0.33 |
| G42A A65G | 0.42 |
| G42A A65C | 0.24 |
| G42A A65U | 0.3 |
| G42A A75G | 0.28 |

| Variant | self-cleavage |
| --- | --- |
| U41G U72G | 0.41 |
| U41G U72C | 0.35 |
| U41G U72A | 0.14 |
| U41A U60G | 0.23 |
| U41A U60A | 0.25 |
| U41A U60C | 0.26 |
| U41C U54G | 0.88 |
| U41C U54C | 1.03 |
| U41C U54A | 1.11 |
| G42A U72A | 0.18 |
| G42A U72C | 0.37 |
| U41G U67A | 0.2 |
| U41G U67C | 0.17 |
| G42A U60C | 0.34 |
| G42A U60A | 0.3 |
| G42U A77U | 0.37 |
| U41C C62U | 0.17 |
| U41C C62G | 0.15 |
| U41C C62A | 0.19 |
| G42U A56G | 0.49 |
| G42U A56U | 0.48 |
| G42C A57G | 0.25 |
| G42A U67A | 0.14 |
| G42A U67C | 0.21 |

| Variant | self-cleavage |
| --- | --- |
| U41A U66G | 0.18 |
| U41A U66A | 0.27 |
| U41A U66C | 0.23 |
| U41C U67C | 0.33 |
| U41C U67G | 0.3 |
| U41C U67A | 0.53 |
| G42A U69A | 0.08 |
| U41A C62A | 0.34 |
| U41A C62U | 0.16 |
| U41A U48A | 0.22 |
| U41A U48G | 0.37 |
| U41A U48C | 0.23 |
| G42A U43C | 0.29 |
| G42A U43G | 0.32 |
| U41C G55A | 0.93 |
| U41C G55U | 1.17 |
| U41G A75G | 0.18 |
| U41G | 0.29 |
| U41C | 1.09 |
| U41G U76C | 0.27 |
| U41G U76A | 0.14 |
| U41A A75U | 0.4 |
| U41A A75G | 0.27 |
| U41A A75C | 0.31 |

| Variant | self-cleavage |
| --- | --- |
| U41C C50U | 1.08 |
| U41C C50A | 0.94 |
| U41C C50G | 0.96 |
| U41C A45U | 0.68 |
| U41C A45C | 0.53 |
| U41C A45G | 0.92 |
| G42A A77U | 0.39 |
| U41A G63U | 0.3 |
| U41A G63C | 0.26 |
| U41A G63A | 0.35 |
| U41A U72C | 0.28 |
| U41A U72G | 0.21 |
| U41A U72A | 0.23 |
| U41C A75G | 1.09 |
| U41C A75C | 1.15 |
| U41C A75U | 1.18 |
| U41C U66G | 0.58 |
| U41C U66A | 0.62 |
| U41C U66C | 0.49 |
| U41G A64U | 0.14 |
| U41G A64G | 0.26 |
| U41G A47G | 0.37 |
| U41C C44A | 0.39 |
| U41C C44U | 0.53 |

| Variant | self-cleavage |
| --- | --- |
| U41A U74C | 0.4 |
| U41A U74A | 0.29 |
| U41C U60C | 0.55 |
| U41C U60G | 0.42 |
| U41C U60A | 0.68 |
| U41G A65G | 0.35 |
| U41C U78C | 1.06 |
| U41C U78A | 1.13 |
| U41C U78G | 1.23 |
| U41C A57U | 0.78 |
| U41C A57C | 0.58 |
| U41C A57G | 1 |
| U41A A64G | 0.28 |
| U41A A64U | 0.29 |
| U41A A64C | 0.15 |
| U41C C68G | 0.39 |
| U41C C68U | 1.09 |
| U41C A65U | 0.48 |
| U41C A65C | 0.4 |
| U41C A65G | 0.53 |
| U41C U43C | 0.46 |
| U41C U43A | 0.72 |
| G42U U49C | 0.02 |
